Measurements published in paper PMC6754456, “A processive endoglucanase with multi-substrate specificity is characterized from porcine gut microbiota” (Scientific Reports, 2019).

Tested on: O=[N+]([O-])c1ccc(O[C@@H]2O[C@H](CO)[C@@H](O[C@@H]3O[C@H](CO)[C@@H](O)[C@H](O)[C@H]3O)[C@H](O)[C@H]2O)cc1
Experiment: purified protein
Conditions: 100 mM MES pH 6.0, 50 °C, 10 min

Question: With p4818Cel5_2A (uncultured bacterium) as the substance, how does the Km read?
Answer: 1200 ± 100 µM

Question: What about the kcat of the same substance?
Answer: 1.63 ± 0.0583 s⁻¹

Question: What about the kcat/Km of the same substance?
Answer: 1350 M⁻¹ s⁻¹
